Data reported in article PMC5117808 (Nature chemical biology, 2016).
No end group written: not given here.

B1: MdnB (ATP-grasp macrocyclase, microviridin J pathway, Microcystis aeruginosa MRC) (enzyme)
chain: MKESPKVVLLLTHSGDFFTIDRVAEAIEKKGATPFRLDTDKFPLEVQLTAQFNGKKSFYQLSYNHQSIDSEQVQSVWTRRIWQPELTGDLDPQFREVCVRESQTTLAGFWDSLRSARWLDNLAQIEKAKNKLLQLRLASEVGLIIPPTLVTNNPDAAREFFSQVQGRMVSKLLTAIARSMESPEFFLYTSRVKAEDLEEAESLRYCPMVFQAEIPKQLELRVVVVNGQTFVGALESSQYNNSAVDWRRPGIDPGAWQHHTLPDSLLQQLQIFMANLGLNFGAFDFILTPGGEYVFLEVNPGGEWGMLERDLDLPISQAIADFLVFG

Assays:
[1] = target: T1, MdnB (Microcystis aeruginosa MRC, UniProt B2G3C9); experiment: ITC binding of MdnA peptides to MdnB
T1 sequence (B2G3C9 1-326): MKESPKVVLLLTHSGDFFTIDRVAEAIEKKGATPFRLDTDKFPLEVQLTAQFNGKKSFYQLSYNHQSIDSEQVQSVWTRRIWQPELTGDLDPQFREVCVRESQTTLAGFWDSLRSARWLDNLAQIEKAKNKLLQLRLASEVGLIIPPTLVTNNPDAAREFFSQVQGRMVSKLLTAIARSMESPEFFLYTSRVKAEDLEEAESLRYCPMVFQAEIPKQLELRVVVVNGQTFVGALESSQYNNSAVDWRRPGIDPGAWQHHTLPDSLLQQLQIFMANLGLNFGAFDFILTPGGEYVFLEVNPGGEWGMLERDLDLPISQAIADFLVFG

[2] = target: T2, MdnC (Microcystis aeruginosa MRC, UniProt B2G3D0); format: binding; conditions: ITC
T2 sequence (B2G3D0 1-324): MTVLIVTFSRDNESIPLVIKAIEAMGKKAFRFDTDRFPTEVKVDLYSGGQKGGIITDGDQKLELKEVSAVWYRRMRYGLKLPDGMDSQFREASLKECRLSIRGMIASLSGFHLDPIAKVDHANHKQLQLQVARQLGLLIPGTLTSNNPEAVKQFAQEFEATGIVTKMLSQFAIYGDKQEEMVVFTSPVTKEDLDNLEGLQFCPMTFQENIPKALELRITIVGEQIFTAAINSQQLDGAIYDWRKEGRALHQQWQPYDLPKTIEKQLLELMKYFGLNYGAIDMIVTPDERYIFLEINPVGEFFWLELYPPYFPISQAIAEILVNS

[3] = target: MdnC (ATP-grasp macrocyclase, microviridin J pathway, Microcystis aeruginosa MRC) (Microcystis aeruginosa MRC); experiment: ITC
[4] = target: MdnC (ATP-grasp macrocyclase, microviridin J pathway, Microcystis aeruginosa MRC) (Microcystis aeruginosa MRC); experiment: SEC + native gel or EMSA
[5] = target: MdnC (Microcystis aeruginosa MRC); experiment: SEC
[6] = target: MdnC (Microcystis aeruginosa MRC); experiment: crystal structure
[7] = tested on: Daphnia; conditions: through inhibition of serine-type proteases; cited from earlier work
[8] = target: B1; experiment: ITC
[9] = target: the molecule itself; experiment: SEC + native gel or EMSA

Nc1ncnc2c1ncn2[C@@H]1O[C@H](COP(=O)(O)OP(=O)(O)OP(=O)(O)O)[C@@H](O)[C@H]1O [ATP]
Binding to MdnB, in words [1]: neither MdnC nor MdnB show an observable heat change
Binding to MdnC, in words [2]: neither MdnC nor MdnB show an observable heat change

Full-length MdnA (residues 1-49), microviridin J precursor peptide (from UniProt B2G3C8 1-49)
Kd [3]: 112 nM

MdnC (ATP-grasp macrocyclase, microviridin J pathway, Microcystis aeruginosa MRC) (enzyme)
stoichiometry N [4]: 2

MdnC (enzyme)
stoichiometry N [5]: 2
stoichiometry N [6]: 2

microviridin J
Effect on Daphnia [7]: lethal molting disruption

MAYPNDQQGKALPFFARFLSVSKEESSIKSPSPDHEISTRKYPSDWEEW [Full-length MdnA (residues 1-49), microviridin J precursor peptide]
Kd [8]: 4.8 ± 1 µM

MAYPNDQQGKALPFFARFLSVSKEESSIKSPSPDHEISTRKYPSDWEEW (two macrolactone rings, Thr39/Asp45 and Ser43/Glu47 (installed by MdnC)) [MdnAΔ2, dicyclic intermediate of MdnA]
Kd [8]: 6.4 ± 2 µM

B1
stoichiometry N [9]: 2

MAYPNDQQGKALPFFARFLSVSKEESSIKSPSPDH (not fully specified)
Kd [3]: 146 nM

MAYPNDQQGKALPFFARFLSVSKEESSIKSPSPDH
Kd [8]: 2.8 ± 0.8 µM

GKALPFFARFLSVS (not fully specified) [MdnA[9-22], minimal peptide containing the conserved region of the leader peptide]
Kd [3]: 308 nM
